Assay results: US20110143428A1 (Genentech, published 2011)
Residue numbers refer to the chain shown, from its start.

Columns and labels:
VEGF-C C137S [1] = target: T1, VEGF-C C137S; assay: SPR, Biacore (IgG1): human IgG captured on CM5 chip, VEGF-C injected, 1:1 Langmuir fit
T1 construct: also called hVEGF-C C137S; human VEGF-C C137S
T1 VEGF-C: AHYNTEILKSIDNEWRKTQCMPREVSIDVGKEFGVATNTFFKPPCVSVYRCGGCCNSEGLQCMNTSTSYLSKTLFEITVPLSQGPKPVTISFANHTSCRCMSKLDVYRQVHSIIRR

[2] = target: T2, mature VEGF-C (R&D Systems) (human, UniProt P49767 103-227); assay: as above
T2 construct: Bought from R&D Systems; also called human VEGF-C matured form (R&D systems)
T2 sequence: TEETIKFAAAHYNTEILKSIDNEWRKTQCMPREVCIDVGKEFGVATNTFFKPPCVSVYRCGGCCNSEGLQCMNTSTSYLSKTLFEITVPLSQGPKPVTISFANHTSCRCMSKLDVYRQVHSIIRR

VEGF-C C137S [3] = target: T1, VEGF-C C137S; assay: phage competition ELISA as in paragraph 556 with human VEGF-C C137S as antigen: phage-displayed clone VC4.5, soluble antigen varied, anti-M13-HRP, OD450
hVEGF-C = target: T3, hVEGF-C (human, UniProt P49767); assay: phage competition ELISA: phage-displayed clone VC4.5 incubated with increasing soluble hVEGF-C, unbound phage captured on hVEGF-C coated plate, anti-M13-HRP, OD450
T3 construct: unlabelled; also called human VEGF-C
T3 sequence (VEGF-C, looked up): T2 sequence

VEGF-C C137S [4] = target: T1, VEGF-C C137S; assay: competition ELISA: three-fold serial dilutions of VC4.5 IgG incubated 2 h on hVEGF-C C137S coated plate (5 ug/ml), then VC4.5 phage for 15 min, anti-M13-HRP, OD450 in %; competitor: VC4.5 phage
[5] = target: T4, biotinylated human VEGF-C (human, UniProt P49767 112-227, limits assumed, biotin conjugated (site not stated)); assay: receptor blocking ELISA: fixed biotin-VEGF-C incubated 2 h with serial dilutions of IgG, unbound VEGF-C captured on immobilized VEGFR3-Fc, streptavidin-HRP, OD450; blocked interaction VEGF-C/VEGFR3. The value stands in brackets after the curve's name in the legend box; the quantity is not named on the sheet, the value agrees with the midpoint of the curve
T4 construct: Panning used the matured form from R&D Systems; also called biotin conjugated VEGF-C; biotinylated VEGF-C
T4 sequence: T1 VEGF-C with S26C

B1: anti-VEGF-C antibody hVC4.5 (hIgG1) (antibody, V domains shown)
VH: EVQLVESGGGLVQPGGSLRLSCAASGFTFTDNWIHWVRQAPGKGLEWVAVISPYSGATYYADSVKGRFTISADTSKNTAYLQMNSLRAEDTAVYYCARDADYKYAFWAFDYWGQGTLVTVSS
VL: DIQMTQSPSSLSASVGDRVTITCRASQDVSTAVAWYQQKPGKAPKLLIYSASFLYSGVPSRFSGSGSGTDFTLTISSLQPEDFATYYCQQSYTTPPTFGQGTKVEIKR
notes: Tested as human IgG1; also called VC4.5 human IgG1 form; human backbone anti-VEGF-C antibody
- Kd (VEGF-C C137S [1]): 1.1 nM
- Kd [2]: 140 nM
- IC50 (VEGF-C C137S [3]): 5.4 nM
- IC50 (hVEGF-C): 1.7 nM
- IC50 (read off the curve) (VEGF-C C137S [4]): ~7 nM
- IC50 [5]: 0.54 nM
